Experimental data as given in patent US20140287471A1, “VARIANT CBH I POLYPEPTIDES WITH REDUCED PRODUCT INHIBITION” (BP CORPORATION NORTN AMERICA INC., priority 2011, published 2014).
Like-named read-outs stand apart in the source and are kept apart here.

B1: R268H (protein, UniProt P62694 18-513, looked up, variant R268H)
Exoglucanase 1: QSACTLQSETHPPLTWQKCSSGGTCTQQTGSVVIDANWRWTHATNSSTNCYDGNTWSSTLCPDNETCAKNCCLDGAAYASTYGVTTSGNSLSIGFVTQSAQKNVGARLYLMASDTTYQEFTLLGNEFSFDVDVSQLPCGLNGALYFVSMDADGGVSKYPTNTAGAKYGTGYCDSQCPRDLKFINGQANVEGWEPSSNNANTGIGGHGSCCSEMDIWEANSISEALTPHPCTTVGQEICEGDGCGGTYSDNHYGGTCDPDGCDWNPYRLGNTSFYGPGSSFTLDTTKKLTVVTQFETSGAINRYYVQNGVTFQQPNAELGSYSGNELNDDYCTAEEAEFGGSSFSDKGGLTQFKKATSGGMVLVMSLWDDYYANMLWLDSTYPTNETSSTPGAVRGSCSTSSGVPAQVESQSPNAKVTFSNIKFGPIGSTGNPSGGNPPGGNRGTTTTRRPATTTGSSPGPTQSHYGQCGGIGYSGPTVCASGTTCQVLNPYYSQCL
B2: R411V (protein, UniProt P62694 18-513, looked up, variant R411V)
Exoglucanase 1: QSACTLQSETHPPLTWQKCSSGGTCTQQTGSVVIDANWRWTHATNSSTNCYDGNTWSSTLCPDNETCAKNCCLDGAAYASTYGVTTSGNSLSIGFVTQSAQKNVGARLYLMASDTTYQEFTLLGNEFSFDVDVSQLPCGLNGALYFVSMDADGGVSKYPTNTAGAKYGTGYCDSQCPRDLKFINGQANVEGWEPSSNNANTGIGGHGSCCSEMDIWEANSISEALTPHPCTTVGQEICEGDGCGGTYSDNRYGGTCDPDGCDWNPYRLGNTSFYGPGSSFTLDTTKKLTVVTQFETSGAINRYYVQNGVTFQQPNAELGSYSGNELNDDYCTAEEAEFGGSSFSDKGGLTQFKKATSGGMVLVMSLWDDYYANMLWLDSTYPTNETSSTPGAVVGSCSTSSGVPAQVESQSPNAKVTFSNIKFGPIGSTGNPSGGNPPGGNRGTTTTRRPATTTGSSPGPTQSHYGQCGGIGYSGPTVCASGTTCQVLNPYYSQCL
B3: R268T (protein, UniProt P62694 18-513, looked up, variant R268T)
Exoglucanase 1: QSACTLQSETHPPLTWQKCSSGGTCTQQTGSVVIDANWRWTHATNSSTNCYDGNTWSSTLCPDNETCAKNCCLDGAAYASTYGVTTSGNSLSIGFVTQSAQKNVGARLYLMASDTTYQEFTLLGNEFSFDVDVSQLPCGLNGALYFVSMDADGGVSKYPTNTAGAKYGTGYCDSQCPRDLKFINGQANVEGWEPSSNNANTGIGGHGSCCSEMDIWEANSISEALTPHPCTTVGQEICEGDGCGGTYSDNTYGGTCDPDGCDWNPYRLGNTSFYGPGSSFTLDTTKKLTVVTQFETSGAINRYYVQNGVTFQQPNAELGSYSGNELNDDYCTAEEAEFGGSSFSDKGGLTQFKKATSGGMVLVMSLWDDYYANMLWLDSTYPTNETSSTPGAVRGSCSTSSGVPAQVESQSPNAKVTFSNIKFGPIGSTGNPSGGNPPGGNRGTTTTRRPATTTGSSPGPTQSHYGQCGGIGYSGPTVCASGTTCQVLNPYYSQCL
B4: R411P (protein, UniProt P62694 18-513, looked up, variant R411P)
Exoglucanase 1: QSACTLQSETHPPLTWQKCSSGGTCTQQTGSVVIDANWRWTHATNSSTNCYDGNTWSSTLCPDNETCAKNCCLDGAAYASTYGVTTSGNSLSIGFVTQSAQKNVGARLYLMASDTTYQEFTLLGNEFSFDVDVSQLPCGLNGALYFVSMDADGGVSKYPTNTAGAKYGTGYCDSQCPRDLKFINGQANVEGWEPSSNNANTGIGGHGSCCSEMDIWEANSISEALTPHPCTTVGQEICEGDGCGGTYSDNRYGGTCDPDGCDWNPYRLGNTSFYGPGSSFTLDTTKKLTVVTQFETSGAINRYYVQNGVTFQQPNAELGSYSGNELNDDYCTAEEAEFGGSSFSDKGGLTQFKKATSGGMVLVMSLWDDYYANMLWLDSTYPTNETSSTPGAVPGSCSTSSGVPAQVESQSPNAKVTFSNIKFGPIGSTGNPSGGNPPGGNRGTTTTRRPATTTGSSPGPTQSHYGQCGGIGYSGPTVCASGTTCQVLNPYYSQCL
B5: R411C (protein, UniProt P62694 18-513, looked up, variant R411C)
Exoglucanase 1: QSACTLQSETHPPLTWQKCSSGGTCTQQTGSVVIDANWRWTHATNSSTNCYDGNTWSSTLCPDNETCAKNCCLDGAAYASTYGVTTSGNSLSIGFVTQSAQKNVGARLYLMASDTTYQEFTLLGNEFSFDVDVSQLPCGLNGALYFVSMDADGGVSKYPTNTAGAKYGTGYCDSQCPRDLKFINGQANVEGWEPSSNNANTGIGGHGSCCSEMDIWEANSISEALTPHPCTTVGQEICEGDGCGGTYSDNRYGGTCDPDGCDWNPYRLGNTSFYGPGSSFTLDTTKKLTVVTQFETSGAINRYYVQNGVTFQQPNAELGSYSGNELNDDYCTAEEAEFGGSSFSDKGGLTQFKKATSGGMVLVMSLWDDYYANMLWLDSTYPTNETSSTPGAVCGSCSTSSGVPAQVESQSPNAKVTFSNIKFGPIGSTGNPSGGNPPGGNRGTTTTRRPATTTGSSPGPTQSHYGQCGGIGYSGPTVCASGTTCQVLNPYYSQCL
B6: R411F (protein, UniProt P62694 18-513, looked up, variant R411F)
Exoglucanase 1: QSACTLQSETHPPLTWQKCSSGGTCTQQTGSVVIDANWRWTHATNSSTNCYDGNTWSSTLCPDNETCAKNCCLDGAAYASTYGVTTSGNSLSIGFVTQSAQKNVGARLYLMASDTTYQEFTLLGNEFSFDVDVSQLPCGLNGALYFVSMDADGGVSKYPTNTAGAKYGTGYCDSQCPRDLKFINGQANVEGWEPSSNNANTGIGGHGSCCSEMDIWEANSISEALTPHPCTTVGQEICEGDGCGGTYSDNRYGGTCDPDGCDWNPYRLGNTSFYGPGSSFTLDTTKKLTVVTQFETSGAINRYYVQNGVTFQQPNAELGSYSGNELNDDYCTAEEAEFGGSSFSDKGGLTQFKKATSGGMVLVMSLWDDYYANMLWLDSTYPTNETSSTPGAVFGSCSTSSGVPAQVESQSPNAKVTFSNIKFGPIGSTGNPSGGNPPGGNRGTTTTRRPATTTGSSPGPTQSHYGQCGGIGYSGPTVCASGTTCQVLNPYYSQCL
B7: R411N (protein, UniProt P62694 18-513, looked up, variant R411N)
Exoglucanase 1: QSACTLQSETHPPLTWQKCSSGGTCTQQTGSVVIDANWRWTHATNSSTNCYDGNTWSSTLCPDNETCAKNCCLDGAAYASTYGVTTSGNSLSIGFVTQSAQKNVGARLYLMASDTTYQEFTLLGNEFSFDVDVSQLPCGLNGALYFVSMDADGGVSKYPTNTAGAKYGTGYCDSQCPRDLKFINGQANVEGWEPSSNNANTGIGGHGSCCSEMDIWEANSISEALTPHPCTTVGQEICEGDGCGGTYSDNRYGGTCDPDGCDWNPYRLGNTSFYGPGSSFTLDTTKKLTVVTQFETSGAINRYYVQNGVTFQQPNAELGSYSGNELNDDYCTAEEAEFGGSSFSDKGGLTQFKKATSGGMVLVMSLWDDYYANMLWLDSTYPTNETSSTPGAVNGSCSTSSGVPAQVESQSPNAKVTFSNIKFGPIGSTGNPSGGNPPGGNRGTTTTRRPATTTGSSPGPTQSHYGQCGGIGYSGPTVCASGTTCQVLNPYYSQCL
B8: R268C (protein, UniProt P62694 18-513, looked up, variant R268C)
Exoglucanase 1: QSACTLQSETHPPLTWQKCSSGGTCTQQTGSVVIDANWRWTHATNSSTNCYDGNTWSSTLCPDNETCAKNCCLDGAAYASTYGVTTSGNSLSIGFVTQSAQKNVGARLYLMASDTTYQEFTLLGNEFSFDVDVSQLPCGLNGALYFVSMDADGGVSKYPTNTAGAKYGTGYCDSQCPRDLKFINGQANVEGWEPSSNNANTGIGGHGSCCSEMDIWEANSISEALTPHPCTTVGQEICEGDGCGGTYSDNCYGGTCDPDGCDWNPYRLGNTSFYGPGSSFTLDTTKKLTVVTQFETSGAINRYYVQNGVTFQQPNAELGSYSGNELNDDYCTAEEAEFGGSSFSDKGGLTQFKKATSGGMVLVMSLWDDYYANMLWLDSTYPTNETSSTPGAVRGSCSTSSGVPAQVESQSPNAKVTFSNIKFGPIGSTGNPSGGNPPGGNRGTTTTRRPATTTGSSPGPTQSHYGQCGGIGYSGPTVCASGTTCQVLNPYYSQCL

Assay: 4-MUL cellobiose tolerance/inhibition assay, dose-response IC50 (Example 2)
Format: biochemical
Description: CBH I activity on was measured using the 4-MUL assay using gluconolactone to inhibit any BG activity. The fluorogenic 4-MUL substrate (SIGMA) was prepared at 100 mM concentration in DMSO. Assays were run in black 96-well-flat-bottomed plates (Costar) and 4-MU fluorescence was read on a BioTek H4 plate reader (ex/em 365/450 nm). Assay plates were filled with buffer (final concentrations of 100 mM MES, pH 6, 25 mM gluconolactone, with or without cellobiose; cellobiose concentrations are listed with appropriate data sets), to which enzyme mixture was added (10-30 μl, 5 μg/mL final) and then assays were initiated by addition of 4-MUL (0.5 mM final concentration in 100 μl total volume). Enzyme mixtures were either CBH I variants from harvested supernatants or standards. Standards included: a negative control, consisting of harvested supernatant from the CBH I knock-out strain; a positive control, consisting of wild-type CBH I from harvested supernatants; and, a commercial CBH I standard (E-CBHI from Megazymes). Activity standards were run by serial dilution of commercial CBH I from 40 to 0.02 μg/mL and 4-MU (SIGMA, prepared at 20 mM in DMSO) (in dilution increments of 2-fold; all dilutions were made using harvested supernatant from the knock-out control). Kinetic rates were monitored over the first 15 mins following 4-MUL addition; initial rates were calculated based on data in the linear range. After 1 hr, a final endpoint read was taken, both before and after reaction quenching (100 μL of 200 mM Sodium Carbonate, pH 10.0). Activity was calculated for kinetic and endpoint reads; background resulting from the CBH I knock-out supernatant remained negligible. 4MU standard curves and HPLC quantification values were used to calculate specific activity.
Tolerance/inhibition values represent activity ratios and/or percent activity remaining/percent activity decreased in the presence versus the absence of cellobiose. Tolerant variants show less inhibition in the presence of cellobiose as compared to wild type, where an activity ratio of 1 (with vs. without a given concentration of cellobiose) is equivalent to 0% inhibition by cellobiose, or 100% tolerance. The effect of cellobiose on CBH I variant performance was monitored by dose-response in the 4MUL assay. Dose-response curves were generated by assaying variant activity in the presence of 6-8 different cellobiose concentrations ranging up to 100 mM cellobiose. CBH I samples were diluted to 5 μg/mL final concentration or were used directly in the case of protein quantification levels below 5 μg/mL. Half maximal inhibitory concentration (IC50) values were determined by plotting 4MUL activity versus cellobiose concentration and fitting with a four parameter dose-response fitting algorithm, with zero activity (or 100% inhibition) constrained to background activity (as established by CBH I knockout values) and with automatic outlier elimination (on GraphPad Prism 5).
Harvested supernatants from active variant isolates were evaluated for cellobiose tolerance at 1 mM cellobiose in the 4-MUL activity assay. Table 8 lists the tolerance of variants at 1 mM. […] Additional cellobiose concentrations at 0.25, 5, 10, 50, and 100 mM were tested leading to full dose-response curves for which half maximal inhibitory concentration (IC50) values were generated (Table 8). The IC50 values support that the variant library has decreased product inhibition, or increased tolerance to cellobiose, when compared to the wild-type enzyme (WT IC50=0.03 mM; see first entry, Table 8).
In one example, the cellobiose tolerance of the library was explored in more detail by generating dose-response curves and determining half maximal inhibitory concentration (IC50) values, the point at which the enzyme is 50% inhibited.

[1] = Secondary screening, CBH I levels normalized to 5 μg/mL, cellobiose range 0.00085-100 mM, read-out: IC50
[2] = secondary screening, CBH I levels normalized to 5 μg/mL, cellobiose range 0.0001-100 mM, read-out: Average IC50

Molecule	IC50 [1] [µM]	IC50 [2] [µM]	IC50 (Secondary screening, 30 μl harvested supernatant (CBH I levels lower than 5 μg/mL), cellobiose range 0.00085-100 mM, read-out: IC50) [µM]
B1	283	209	
B2	2900	3190	
B3	349	360	
B4	1270	1050	
B5	1310	886	
B6	7580	5390	
B7		6720	7900
B8	351	335	
